Assay results from paper PMC2686265, “ATP and MO25α Regulate the Conformational State of the STRADα Pseudokinase and Activation of the LKB1 Tumour Suppressor” (PLoS Biology, 2009).
Each block holds one molecule with its values, some of them ahead of it.

Assays:
[1] = molecular target: T1, STRADα/MO25α complex (Homo sapiens, UniProt Q7RTN6); assay: TNP-ATP saturation binding (fluorescence); details: No Mg2+
T1 construct: wild-type and mutant forms of STRADα (residues 54–431) and MO25α (residues 1–341) were expressed individually as GST fusion proteins in E. coli; GST (cleaved yes); made in house; host or cells: E. coli
T1 sequence (Q7RTN6 54-431): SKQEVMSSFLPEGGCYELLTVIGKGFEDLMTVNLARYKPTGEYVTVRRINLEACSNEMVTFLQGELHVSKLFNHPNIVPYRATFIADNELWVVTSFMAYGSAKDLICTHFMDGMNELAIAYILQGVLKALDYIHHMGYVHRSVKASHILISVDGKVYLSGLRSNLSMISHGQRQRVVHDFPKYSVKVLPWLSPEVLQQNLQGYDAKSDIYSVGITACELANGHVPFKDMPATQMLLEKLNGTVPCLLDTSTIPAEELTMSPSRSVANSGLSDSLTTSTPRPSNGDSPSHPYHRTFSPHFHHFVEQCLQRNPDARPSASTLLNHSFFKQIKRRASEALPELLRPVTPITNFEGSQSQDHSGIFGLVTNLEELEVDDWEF
T1 sequence (Q9Y376 1-341 partner): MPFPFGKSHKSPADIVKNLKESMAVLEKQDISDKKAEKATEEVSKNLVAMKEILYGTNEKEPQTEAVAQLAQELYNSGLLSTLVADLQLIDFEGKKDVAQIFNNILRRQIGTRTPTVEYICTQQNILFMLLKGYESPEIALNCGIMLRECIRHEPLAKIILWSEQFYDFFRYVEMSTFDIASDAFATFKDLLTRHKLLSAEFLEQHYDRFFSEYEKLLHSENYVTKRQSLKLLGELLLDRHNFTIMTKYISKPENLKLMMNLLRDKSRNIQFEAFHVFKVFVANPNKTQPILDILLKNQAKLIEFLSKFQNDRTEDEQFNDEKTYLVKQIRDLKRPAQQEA
Method: (§1) Fluorescent measurements of TNP-ATP (Molecular Probes), were obtained at 25°C in assay buffer (with the addition of 0.5–1.0 mM MgCl2 where indicated) using 1-cm pathlength cuvettes in a VARIAN Cary Eclipse Fluorescence spectrophotometer (Varian). Fluorescence was recorded using a 410-nm/540-nm excitation/emission wavelengths from 500 to 600 nm. In all cases, signal from the TNP-ATP buffer control was subtracted as background. For all binding studies, STRADα and STRADα mutants were assayed at 2 µM. In cases where STRADα/MO25α complexes were assayed, wild-type or mutant MO25α (2 µM) were preincubated for at least 2 h at 4°C prior to a fluorescence binding experiment. For saturation binding experiments, concentrated stocks of TNP-ATP were added stepwise, covering a range of concentrations from 0.05 to 30 µM. For displacement experiments, the concentration of TNP-ATP was fixed at 5 µM, and ATP or ADP was titrated in, covering a range of concentrations from 0.05 to 500 µM.
(§2) All data were analysed using GraphPad-PRISM software (http://www.graphpad.com). […] In the displacement studies, equilibrium constant values for ATP and ADP were calculated by first determining the logEC50 value, using a standard dose-response equation: F x/F max = minimum+(maximum−minimum)/(1+10^([N]−logEC 50 ^)), where [N] equals the concentration of added nucleotide, and F x/F max represents the fractional occupancy. Equilibrium constants for the competing ATP and ADP (K d ^N), were fitted using the equation: logEC50 = log(10^logK d ^N × (1+[TNP−ATP]/K d ^TNP−ATP)).

[2] = molecular target: T2, STRADα (Homo sapiens, UniProt Q7RTN6); assay: TNP-ATP saturation binding (fluorescence); details: STRADα alone
T2 construct: wild-type and mutant forms of STRADα (residues 54–431) and MO25α (residues 1–341) were expressed individually as GST fusion proteins in E. coli; GST (cleaved yes); made in house; host or cells: E. coli
T2 sequence (Q7RTN6 54-431): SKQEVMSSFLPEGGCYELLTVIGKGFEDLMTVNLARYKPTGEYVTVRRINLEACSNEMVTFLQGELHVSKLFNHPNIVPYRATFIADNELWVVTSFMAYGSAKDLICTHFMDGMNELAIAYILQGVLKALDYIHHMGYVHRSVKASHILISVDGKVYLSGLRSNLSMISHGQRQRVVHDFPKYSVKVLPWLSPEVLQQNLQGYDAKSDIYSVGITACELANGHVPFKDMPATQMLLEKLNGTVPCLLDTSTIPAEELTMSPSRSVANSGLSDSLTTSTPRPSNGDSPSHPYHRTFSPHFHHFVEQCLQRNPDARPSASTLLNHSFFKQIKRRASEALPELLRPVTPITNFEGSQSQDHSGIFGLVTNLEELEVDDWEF
Method: as §1, §2

[3] = molecular target: T3, His-STRADα (residues 59–431) (human, UniProt Q7RTN6 59-431, lysines chemically methylated in the 2.35 Å crystal form only); assay: crystal structure; co-expressed His-STRADα(59–431)/MO25α(1–341) complex at 7.5 mg/ml with 10 mM ATP and 1 mM MgCl2, sitting drop; unmethylated crystals 4.8 Å, lysine-methylated crystals 2.35 Å, space group P212121; details: both partners purified
T3 construct: STRADα (STe-20 Related Adaptor alpha), human, residues 59–431; Crystallised both unmethylated (4.8 Å) and lysine-methylated (2.35 Å, PDB 3GNI); unmethylated in SPR; also called N-terminally 6-His-tagged STRADα; His-tagged STRADα; source: E. coli BL21(DE3)pLysS, coexpressed with untagged MO25α, purified (Ni2+ IMAC, Superdex 75); for SPR separated from MO25α on Ni2+-agarose (500 mM NaCl washes, …)
T3 sequence (looked up): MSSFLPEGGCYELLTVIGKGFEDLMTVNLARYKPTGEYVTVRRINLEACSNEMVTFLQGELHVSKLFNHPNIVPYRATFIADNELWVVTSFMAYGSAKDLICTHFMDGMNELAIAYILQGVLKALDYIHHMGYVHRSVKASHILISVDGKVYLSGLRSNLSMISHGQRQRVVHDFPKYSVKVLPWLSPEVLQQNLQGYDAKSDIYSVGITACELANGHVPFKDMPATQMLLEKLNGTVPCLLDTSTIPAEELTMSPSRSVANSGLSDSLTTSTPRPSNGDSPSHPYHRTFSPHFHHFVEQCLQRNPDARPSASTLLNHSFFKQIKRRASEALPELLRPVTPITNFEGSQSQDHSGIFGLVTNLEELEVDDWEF

[4] = molecular target: T4, untagged STRADα (residues 59–431) (human, UniProt Q7RTN6 59-431); assay: SPR; as a2 but with 100 µM ATP and 1 mM MgCl2 (MgATP); details: both partners purified
T4 construct: STRADα, human, residues 59–431; also called STRADα lacking the His tag
T4 sequence (looked up): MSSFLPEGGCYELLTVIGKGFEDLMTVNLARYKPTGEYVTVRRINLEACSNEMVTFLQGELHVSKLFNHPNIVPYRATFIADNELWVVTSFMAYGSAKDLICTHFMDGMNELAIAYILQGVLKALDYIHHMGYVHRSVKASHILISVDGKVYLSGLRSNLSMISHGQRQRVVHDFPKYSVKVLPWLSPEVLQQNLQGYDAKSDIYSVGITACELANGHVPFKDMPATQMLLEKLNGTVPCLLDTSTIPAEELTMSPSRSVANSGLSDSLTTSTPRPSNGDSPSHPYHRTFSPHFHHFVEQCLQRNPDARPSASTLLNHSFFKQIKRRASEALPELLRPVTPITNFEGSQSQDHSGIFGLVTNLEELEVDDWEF

[5] = molecular target: T5, MO25α (M260A) (residues 1–341) (human, UniProt Q9Y376 1-341, M260A); assay: SPR; ATP, Kd1
T5 sequence: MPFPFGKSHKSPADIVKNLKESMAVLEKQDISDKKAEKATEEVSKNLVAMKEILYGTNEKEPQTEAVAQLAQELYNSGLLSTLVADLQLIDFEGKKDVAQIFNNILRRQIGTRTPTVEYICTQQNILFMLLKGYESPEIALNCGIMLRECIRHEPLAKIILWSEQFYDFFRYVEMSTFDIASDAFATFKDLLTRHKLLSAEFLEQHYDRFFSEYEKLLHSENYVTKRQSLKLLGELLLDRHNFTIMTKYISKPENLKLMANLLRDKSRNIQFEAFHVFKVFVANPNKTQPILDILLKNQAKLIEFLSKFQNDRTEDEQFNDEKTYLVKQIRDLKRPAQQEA

[6] = molecular target: T6, MO25α (R227A) (residues 1–341) (human, UniProt Q9Y376 1-341, R227A); assay: SPR; ATP, Kd1
T6 sequence: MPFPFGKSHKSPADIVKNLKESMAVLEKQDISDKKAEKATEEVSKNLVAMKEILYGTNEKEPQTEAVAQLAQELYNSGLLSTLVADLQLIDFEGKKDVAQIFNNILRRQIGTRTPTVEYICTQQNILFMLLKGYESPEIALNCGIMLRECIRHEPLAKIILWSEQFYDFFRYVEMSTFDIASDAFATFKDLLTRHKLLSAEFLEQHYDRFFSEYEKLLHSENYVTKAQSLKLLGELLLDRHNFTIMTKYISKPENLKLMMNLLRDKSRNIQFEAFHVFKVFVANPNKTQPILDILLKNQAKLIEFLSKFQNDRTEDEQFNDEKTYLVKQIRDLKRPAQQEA

[7] = molecular target: T5, MO25α (M260A) (residues 1–341); assay: SPR; ATP, Kd2 (second site)
[8] = molecular target: T7, MO25α (WT) (residues 1–341) (human, UniProt Q9Y376 1-341); assay: SPR; ATP+Mg2+, Kd1
T7 chain: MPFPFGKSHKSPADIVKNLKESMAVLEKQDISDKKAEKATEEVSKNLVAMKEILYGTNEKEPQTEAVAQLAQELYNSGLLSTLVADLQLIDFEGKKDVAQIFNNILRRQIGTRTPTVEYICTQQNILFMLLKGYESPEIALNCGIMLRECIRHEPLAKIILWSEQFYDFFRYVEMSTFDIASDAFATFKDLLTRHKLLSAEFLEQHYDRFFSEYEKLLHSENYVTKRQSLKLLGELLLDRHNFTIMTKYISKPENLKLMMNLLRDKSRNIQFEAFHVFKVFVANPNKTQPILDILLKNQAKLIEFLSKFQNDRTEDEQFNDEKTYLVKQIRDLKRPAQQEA

[9] = molecular target: T5, MO25α (M260A) (residues 1–341); assay: SPR; ATP+Mg2+, Kd1
[10] = molecular target: T6, MO25α (R227A) (residues 1–341); assay: SPR; ATP+Mg2+, Kd1
[11] = molecular target: T5, MO25α (M260A) (residues 1–341); assay: SPR
[12] = molecular target: T7, MO25α (WT) (residues 1–341); assay: SPR; ATP+Mg2+, Kd2 (second site)
[13] = molecular target: T5, MO25α (M260A) (residues 1–341); assay: SPR; ATP+Mg2+, Kd2 (second site)

Molecule: Nc1ncnc2c1ncn2[C@@H]1O[C@H](COP(=O)(O)OP(=O)(O)OP(=O)(O)O)[C@H]2OC3(O[C@H]21)C([N+](=O)[O-])=CC(=[N+]([O-])[O-])C=C3[N+](=O)[O-] (some centres unmarked) [TNP-ATP, 2′,3′-O-2,4,6-trinitrophenyl-ATP]
- Kd [1]: 0.09 ± 0.03 µM
- Kd ([2]; 0.5 mM Mg2+): 1.3 ± 0.8 µM
- Kd ([2]; No Mg2+): 1.1 µM

B1: full-length MO25α (residues 1–341), untagged (natural protein, human, UniProt Q9Y376 1-341, looked up)
chain: MPFPFGKSHKSPADIVKNLKESMAVLEKQDISDKKAEKATEEVSKNLVAMKEILYGTNEKEPQTEAVAQLAQELYNSGLLSTLVADLQLIDFEGKKDVAQIFNNILRRQIGTRTPTVEYICTQQNILFMLLKGYESPEIALNCGIMLRECIRHEPLAKIILWSEQFYDFFRYVEMSTFDIASDAFATFKDLLTRHKLLSAEFLEQHYDRFFSEYEKLLHSENYVTKRQSLKLLGELLLDRHNFTIMTKYISKPENLKLMMNLLRDKSRNIQFEAFHVFKVFVANPNKTQPILDILLKNQAKLIEFLSKFQNDRTEDEQFNDEKTYLVKQIRDLKRPAQQEA
modifications: lysines chemically methylated in the 2.35 Å crystal form only
notes: MO25α, human, full length, residues 1–341; source: E. coli BL21(DE3)pLysS, coexpressed with His-STRADα, co-purified (Ni2+ IMAC, Superdex 75)
- binding result [3]: binds

Second part, the molecule after the results:

- binding result [4]: binds
B2: MO25α (R227A) (residues 1–341) (natural protein, human, UniProt Q9Y376 1-341, looked up)
chain: MPFPFGKSHKSPADIVKNLKESMAVLEKQDISDKKAEKATEEVSKNLVAMKEILYGTNEKEPQTEAVAQLAQELYNSGLLSTLVADLQLIDFEGKKDVAQIFNNILRRQIGTRTPTVEYICTQQNILFMLLKGYESPEIALNCGIMLRECIRHEPLAKIILWSEQFYDFFRYVEMSTFDIASDAFATFKDLLTRHKLLSAEFLEQHYDRFFSEYEKLLHSENYVTKAQSLKLLGELLLDRHNFTIMTKYISKPENLKLMMNLLRDKSRNIQFEAFHVFKVFVANPNKTQPILDILLKNQAKLIEFLSKFQNDRTEDEQFNDEKTYLVKQIRDLKRPAQQEA
notes: MO25α, human, residues 1–341 (full length), R227A; source: E. coli, expressed individually as GST fusion, purified on glutathione-Sepharose, eluted with PreScission protease

- Kd [5]: 1.5 µM
- Kd [6]: 0.6 µM
- Kd [7]: 0.03 µM
- Kd [8]: 5.1 µM
- Kd [9]: 2.3 µM
- Kd [10]: 0.8 µM
- Kd [11]: 8.1 µM
- Kd [12]: 0.051 µM
- Kd [13]: 0.082 µM
B3: untagged STRADα (residues 59–431) (domain or fragment)
chain: MSSFLPEGGCYELLTVIGKGFEDLMTVNLARYKPTGEYVTVRRINLEACSNEMVTFLQGELHVSKLFNHPNIVPYRATFIADNELWVVTSFMAYGSAKDLICTHFMDGMNELAIAYILQGVLKALDYIHHMGYVHRSVKASHILISVDGKVYLSGLRSNLSMISHGQRQRVVHDFPKYSVKVLPWLSPEVLQQNLQGYDAKSDIYSVGITACELANGHVPFKDMPATQMLLEKLNGTVPCLLDTSTIPAEELTMSPSRSVANSGLSDSLTTSTPRPSNGDSPSHPYHRTFSPHFHHFVEQCLQRNPDARPSASTLLNHSFFKQIKRRASEALPELLRPVTPITNFEGSQSQDHSGIFGLVTNLEELEVDDWEF
